These results are taken from paper PMC6488372 (Molecular microbiology, 2019).

This assay concerns the target E. coli His-α ΔCTD (His-α Δ235, α 1–234) (E. coli, UniProt P0A7Z4 1-234). Kind of assay: BLI. (In BLI a coated tip is dipped into the sample, and binding shifts an interference pattern.)

B1: LuxR (native, wild-type), purified (natural protein)
chain: MDSIAKRPRTRLSPLKRKQQLMEIALEVFARRGIGRGGHADIAEIAQVSVATVFNYFPTREDLVDEVLNHVVRQFSNFLSDNIDLDIHARENIANITNAMIELVSQDCHWLKVWFEWSASTRDEVWPLFVTTNRTNQLLVQNMFIKAIERGEVCDQHEPEHLANLFHGICYSIFVQANRSKSEAELTNLVSAYLDMLCIYNREHH
One may read the Kd as the free concentration of one partner at which half of the binding sites on the other are occupied at equilibrium, for simple one-to-one binding. Lower therefore signals tighter binding. On to B1, for which the Kd was 0.256 µM.
